One experiment deals with blood glucose. The experiment in a line: blood-glucose depression assay modified from the U.S. Pharmacopeia. The conditions noted are these: individual animals A-F; overnight fast; 0.1mg protein/100gm body weight subcutaneous; 60 minutes after injection; each animal its own control.
In the next experiment the target is Concanavalin A (Canavalia ensiformis, UniProt P02866). The experiment can be described thus: binding to and glucose elution from columns of immobilized Concanavalin A. Details: species or system Jack Bean. As for the experimental part: At the point indicated by the arrow, 0.2 M glucose in the column buffer was begun. Fractions (2.0 ml) were collected at a flow rate of 10-15 ml/h.
Displacement of hormone was accomplished using 1.0 ml pulses of column buffer containing varying amounts of glucose. Glucose content is indicated over the appropriate arrows. Fractions (1.7 ml) were collected at a flow rate of 10-15 ml/h.

Several values for one entry are separate records, joined by “and”; a condition that tells them apart may be missing. Identical values can stand only once.

Description for blood glucose: The conjugate prepared in I was tested using the blood-glucose depression assay modified from the U.S. Pharmoacopeia (Vol. XVIII, 883-884 (1967)).
*After an overnight fast, each animal received 0.1mg protein/100gm body
weight by subcutaneous injection. Each of the animals served as its own
control, receiving the maltoseinsulin derivative on day 1, and control
insulin on day 2. Blood glucose depression was determined 60 minutes afte
injection using a Beckman Glucose Analyzer 2.

Consider insulin [Control insulin], for which the “BLOOD GLUCOSE DEPRESSION” value with blood glucose was 75 mg % and 70 mg % and 79 mg % and 64 mg % and 73 mg %. Besides, the “binding to immobilized Concanavalin A” value with Concanavalin A (20 mg applied to column, buffer wash, 25 mM sodium phosphate pH 7.4) is given as “did not bind to Concanavalin A”. Also, the “elution from Concanavalin A by glucose” value with Concanavalin A (0.2 M glucose in column buffer, 1,000:1 molar excess of glucose) was “none was eluted by the addition of glucose”.

Values taken from patent publication US4348387A, “Method and system for the controlled release of biologically active substances to a body fluid” (The Rockefeller University, priority 1979, dated 1982).
